Measurements reported in patent WO2018065552A1 (dated 2018).

Target: T1, human CD39 endogenously expressed on Ramos human lymphoma cells (human, UniProt P49961 1-510)
T1 construct: also called NTPDase1; ENTPD1
T1 sequence: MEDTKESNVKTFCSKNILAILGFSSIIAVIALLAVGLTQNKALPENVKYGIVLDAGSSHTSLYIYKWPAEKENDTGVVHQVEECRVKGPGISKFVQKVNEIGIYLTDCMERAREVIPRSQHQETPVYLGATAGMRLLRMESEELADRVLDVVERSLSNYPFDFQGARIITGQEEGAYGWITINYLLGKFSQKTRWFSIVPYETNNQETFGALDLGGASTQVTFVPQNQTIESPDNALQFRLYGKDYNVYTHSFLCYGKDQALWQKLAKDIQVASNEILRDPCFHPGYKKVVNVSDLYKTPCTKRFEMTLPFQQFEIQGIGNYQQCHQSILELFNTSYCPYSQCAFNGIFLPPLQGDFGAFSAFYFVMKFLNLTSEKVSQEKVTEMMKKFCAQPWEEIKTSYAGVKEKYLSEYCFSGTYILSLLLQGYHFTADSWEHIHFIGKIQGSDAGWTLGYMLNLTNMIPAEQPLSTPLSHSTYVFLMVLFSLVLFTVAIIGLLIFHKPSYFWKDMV
Assay: flow cytometry, antibody titration on Ramos cells endogenously expressing CD39

B1: HH3/L0 (antibody, human IgG1, V domains shown)
VH: QVQLVQSGSELKKPGASVKVSCKASGYTFTHYGMNWVRQAPGQGLKWMGWINTYTGEPTYAQDFKGRFVFSLDTSVSTAYLQISSLKAEDTAVYYCARRRYEGNSVFYYFDYWGQGTTVTVSS
VL: DIQMTQSPSSLSASVGDRVTITCRASENIYSYFSWYQQKPGKAPKLLIYTAKTLAEGVPSRFSGSGSGTDFTLTISSLQPEDFATYYCQHHYVTPYTFGGGTKVEIK
notes: Human IgG1 N297Q, huCk; also called mAb38
B1: binds.

B2: HH4/L0 (antibody, human IgG1, V domains shown)
VH: QVQLVQSGSELKKPGASVKVSCKASGYTFTHYGMNWVRQAPGQGLKWMGWINTETGEPTYADDFKGRFVFSLDTSVSTAYLQISSLKAEDTAVYYCARRRYEGNYVFYYFDYWGQGTTVTVSS
VL: DIQMTQSPSSLSASVGDRVTITCRASENIYSYFSWYQQKPGKAPKLLIYTAKTLAEGVPSRFSGSGSGTDFTLTISSLQPEDFATYYCQHHYVTPYTFGGGTKVEIK
notes: Human IgG1 N297Q, huCk; HH4 has a glutamic acid substitution at Kabat residue 53; its row is lacking in this copy; If the inference holds, this is mAb39
B2: no binding.
